The values that follow come from the nanobody polyreactivity screen of Harvey et al. (2022).

The series can be described thus: yeast display, Sf9 membrane polyspecificity reagent, FACS + sequencing; frameworks hold sequencing errors. An outline of the steps:
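Galactose-induced (36–48 hours) yeast carrying a synthetic nanobody display library were exposed to 10% biotinylated, detergent-solubilized Sf9 membrane reagent at 4 °C for 1 hour. FACS followed streptavidin microbead enrichment, using low and high (top ~1%) gates for expression (anti-HA) and reagent binding (streptavidin). Colony PCR, MiSeq 2 × 250 sequencing and CDR-length filtering followed. Labels for polyreactivity reflect the gate of origin.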
Take “QVQLVESGGGLVQAGGSLRLSCAASGSIFTYTMGGYRQAPGKERELVATISRTGSTNYADSVKGRFTISRDNAKNTVYLQMNSLKPEDTAVYYCSKGAYITGAWPFYELITPYAYWGQGTQVTVSS”: the “polyreactivity (PSR sort gate)” value was “high polyreactivity”. For “QVQLVESGGGLVQAGGSLRLSCAASGSIFTYYAMGWYRKAPGKERELVAAITKSGGRTYYAHSVMGRFTISRDNAKNTVYLQMNRLKPEDTAVYYCAALYGRYQTSYQFDYWGQGTQVTVSS” the value was “high polyreactivity”; for “QVQLVESGGGLVQAGGSLRLSCAASGSIFTYYAMGWYRQAPGKEREFVAAISRRGGSTYYADSVKGRFTISRDNAKNTVYLQMNSLKPEDTAVYFCAADRWTRTLVKVIGRYYYCGQGTQVTVSS”, “high polyreactivity”; for “QVQLVESGGGLVQAGGSLRLSCAASGSIFTYYAMGWYRQAPGKERELVAAINSGGRTNYADSVKGRFTISRDNAKNTVYLQMNSLKPEDTAVYYCAKYGVLQYGYWGQGTQVTVSS”, “low polyreactivity”.

For the sequence “QVQLVESGGGLVQAGGSLRLSCAASGSIFTYYAMGWYRQAPGKERELVAAISSDGGRTFYADSVKGRFTISRDNAKNTVYLQMNSLKPEDTAVYYCAAETNRFPGYGYWGQGTQVTVSA”, the “polyreactivity (PSR sort gate)” value was “low polyreactivity”.

With “QVQLVESGGGLVQAGGSLRLSCAASGSIFTYYTMGWYRPAPGKERELVAAIRWSAGRTYYADSVKGRFTISRDNAKNTVYLQMNSLKPEDTAVYYCAAAERLRHGLKFDYWGQGTQVTVSS”, the “polyreactivity (PSR sort gate)” value is recorded as “high polyreactivity”. For “QVQLVESGGGLVQAGGSLRLSCAASGSIFTYYVMGWYRQAPGKERELVAAITISGGSTYYADSVKGRFTISRDNAKITVYLQMKSLKPEDTAVYYCAAEEVYYEADGFQYSYDYWGQGTLVTVSS” the value was “high polyreactivity”.

Regarding “QVQLVESGGGLVQAGGSLRLSCAASGSIFVANAMGWYRQAPGKERELVAAISGSGDRTRYADSVKGRFTISRDNAKNTVYLQMNSLKPEDTAVYYCNARYYASGNLYNYWGQGTQVTVSS”, the “polyreactivity (PSR sort gate)” value was “high polyreactivity”. For the sequence “QVQLVESGGGLVQAGGSLRLSCAASGSIFVANAMGWYRQAPVKERELVAAISRRGGSTYYADSVKGRFTISRDNAKNTVYLQMNSLKPEDTAVYYCAAEDVYEYDYWGQGTQVTVSS”, the “polyreactivity (PSR sort gate)” value is given as “high polyreactivity”. For “QVQLVESGGGLVQAGGSLRLSCAASGSIFVDTAMGWYRQAPGKERELVAAINWSGGSTYYADSVKGRFTISRDNAQNTVYLQMNSLKPEDTAVYYCYAARPGQTWDEHSWYEYWGQGTQVTVSS” the value was “low polyreactivity”. Take “QVQLVESGGGLVQAGGSLRLSCAASGSIFVFNAMGWYRQAPGKERELVAAISSSGGSTYYADSVKGRFTISRDNAKNTVYLQMNSLKPEDTAVYYCNKRLYYQRWPAAAREYWGQGTQVTVSS”: the “polyreactivity (PSR sort gate)” value is given as “high polyreactivity”. Then “QVQLVESGGGLVQAGGSLRLSCAASGSIFVFYDMGWYRQAPGKERELVATISSGGGGTYYTDSVKGRFTISRDNAKNTVYLQLNSLKPEDTAVYYCAAEGDKYGKGYGYWGQGTQVTVSS”, with “low polyreactivity”; and “QVQLVESGGGLVQAGGSLRLSCAASGSIFVFYDMGWYRQAPGKERELVATISSGGGGTYYTDSVKGRFTISRDNAKNTVYLQMNSLKPEDTAVYYCAAEGDKYGKGYGYWGQGTQVTVSS”, with “low polyreactivity”; and “QVQLVESGGGLVQAGGSLRLSCAASGSIFVGNAMGWYRQAPGKERELVATITSGCSTYYADSVKGRFTISRDNAMNTVYLQMNSLKPEVTAVYYCAADYDFSKFDYDYWGQGTQVTVSS”, with “low polyreactivity”.

For the sequence “QVQLVESGGGLVQAGGSLRLSCAASGSIFVGNAMGWYRQAPGKERELVSTISRGARTKYADSVKGRFTISRDNAKNTVYLQMNSLKPEDTAVYYCNKVSSYYVFYTPYYSWGQGTQVTVSS”, the “polyreactivity (PSR sort gate)” value is “low polyreactivity”. Turning to “QVQLVESGGGLVQAGGSLRLSCAASGSIFVGYAMGWYRQAPGKERELVAAINSSGDRTFYADSVKGRFTISRDNAKNTVYLQMNSLKREDTAVYYCNRVYVRAGVSVAYNYWGQGTQVTVSS”, the “polyreactivity (PSR sort gate)” value is recorded as “high polyreactivity”.
